Data set [1] concerns the molecule itself. Nature of the data set: non-reducing western blot, HEK293 cells and EVs. The text has this:
Next, the intermolecular disulfide bond was examined in the intracellular domain. Since sortilin has only one cysteine (Cys⁷⁸³) in the intracellular domain, the cysteine was expected to form an intermolecular disulfide bond for dimerization in the intracellular domain. Cys⁷⁸³ was replaced by alanine (C783A) in 6×His-sortilin ICD+TMD and FLAG-sortilin Full (FIG. 5A). […] The homodimers of low molecular weight were mainly transported to EVs, while homodimers of high molecular weight and multimers were mainly not transported to EVs (FIG. 5D). […] Since Cys⁷⁸³ was reported to be palmitoylated (22), the connection between palmitoylation and intermolecular disulfide bond was studied by incubating FLAG-sortilin HEK293 cells with an inhibitor of palmitoylation, 2-fluoropalmitic acid (2-FPA) (22), which increased only homodimers of lower molecular size in the cells (FIG. 5E).
Cells, EVs and the supernatant of culture medium were lysed with IP lysis buffer (Thermo Fisher Scientific Inc., Cat#87787) containing protease inhibitor (Roche Diagnostics, Cat#04693159001). Protein concentration was measured using the bicinchoninic acid (BCA) method (Thermo Fisher Scientific Inc., Cat#23225). Laemmli buffer (Boston Bioproduct; non-reducing, Cat#BP-110NR; reducing, Cat#BP-111R) was added to the lysate, and boiled at 95° C. for 5 minutes.
On the technique in general: In western blotting, separated proteins are transferred to a membrane and probed.

Data set [2] deals with the molecule itself. Nature of the data set: MG-132, anti-FLAG immunoprecipitation, non-reducing western blot. As to the method:
FLAG-sortilin Full and ECD+TMD forms homodimers and multimers. Empty vector was used as control. […] MG-132 increased FLAG-sortilin ICD+TMD in a time and concentration-dependent manner. […] Monomers, homodimers and multimers are abbreviated as MO, D and MU, respectively. IB, immunoblotting.
Cells or EVs were lysed in IP lysis buffer. Anti-FLAG M2 antibody (5 μg) or mouse IgG (5 lig, R&D Systems, Cat#MAB002, Lot# IX2415091) were incubated with Dynabeads with Protein G (Thermo Fisher Scientific Inc., Cat#10004D) by rotation for overnight at 4° C. Cell lysate was incubated for 4 hours at 4° C. under rotating conditions. The bead-antibody-protein complex was washed with PBS 3 times. Then, Laemmli buffer was added to the precipitates for SDS-PAGE.

B1: FLAG-sortilin C783A (receptor)
chain: SAPDYKDDDDKGEDEECGRVRDFVAKLANNTHQHVFDDLRGSVSLSWVGDSTGVILVLTTFHVPLVIMTFGQSKLYRSEDYGKNFKDITDLINNTFIRTEFGMAIGPENSGKVVLTAEVSGGSRGGRIFRSSDFAKNFVQTDLPFHPLTQMMYSPQNSDYLLALSTENGLWVSKNFGGKWEEIHKAVCLAKWGSDNTIFFTTYANGSCKADLGALELWRTSDLGKSFKTIGVKIYSFGLGGRFLFASVMADKDTTRRIHVSTDQGDTWSMAQLPSVGQEQFYSILAANDDMVFMHVDEPGDTGFGTIFTSDDRGIVYSKSLDRHLYTTTGGETDFTNVTSLRGVYITSVLSEDNSIQTMITFDQGGRWTHLRKPENSECDATAKNKNECSLHIHASYSISQKLNVPMAPLSEPNAVGIVIAHGSVGDAISVMVPDVYISDDGGYSWTKMLEGPHYYTILDSGGIIVAIEHSSRPINVIKFSTDEGQCWQTYTFTRDPIYFTGLASEPGARSMNISIWGFTESFLTSQWVSYTIDFKDILERNCEEKDYTIWLAHSTDPEDYEDGCILGYKEQFLRLRKSSMCQNGRDYVVTKQPSICLCSLEDFLCDFGYYRPENDSKCVEQPELKGHDLEFCLYGREEHLTTNGYRKIPGDKCQGGVNPVREVKDLKKKCTSNFLSPEKQNSKSNSVPIILAIVGLMLVTVVAGVLIVKKYVAGGRFLVHRYSVLQQHAEANGVDGVDALDTASHTNKSGYHDDSDEDLLE
notes: also called C783A mutant
For the protein B1, the binding result in data set [1] is reported as “binds”.

B2: FLAG-sortilin ICD+TMD (receptor)
chain: SAPDYKDDDDKNSVPIILAIVGLMLVTVVAGVLIVKKYVCGGRFLVHRYSVLQQHAEANGVDGVDALDTASHTNKSGYHDDSDEDLLE
notes: written as the form after propeptide cleavage
B2: the binding result in data set [2] was “binds”.

The record behind these values is patent US20200330553A1 (BRIGHAM AND WOMEN S HOSPITAL, published 2020).
